The results in this text go back to paper PMC3258140 (Nucleic Acids Research, 2011).

This data set deals with the molecule itself. Description: crystal structure.

B1: Thermotoga maritima Mre11^(H94Q, F291S) (residues L7M-385), nuclease deficient (enzyme)
chain: MKILHTSDWHLGVTSWTSSRPVDRREELKKALDKVVEEAEKREVDLILLTGDLLHSRNNPSVVALHDLLDYLKRMMRTAPVVVLPGNQDWKGLKLFGNFVTSISSDITFVMSFEPVDVEAKRGQKVRILPFPYPDESEALRKNEGDFRFFLESRLNKLYEEALKKEDFAIFMGHFTVEGLAGYAGIEQGREIIINRALIPSVVDYAALGHIHSFREIQKQPLTIYPGSLIRIDFGEEADEKGAVFVELKRGEPPRYERIDASPLPLKTLYYKKIDTSALKSIRDSCRNFPGYVRVVYEEDSGILPDLMGEIDNLVKIERKSRREIEEVLRESPEEFKEELDKLDYFELFKEYLKKREENHEKLLKILDELLDEVKKSEA
Consider B1, for which the binding result is “binds”.
